Values belong to the binder of their own block, whether it stands above or below them.
B1: GDF3 (ligand, UniProt Q9NR23 251-364, looked up)
chain: AAIPVPKLSCKNLCHRHQLFINFRDLGWHKWIIAPKGFMANYCHGECPFSLTISLNSSNYAFMQALMHAVDPEIPQAVCIPTKLSPISMLYQDNNDNVILRHYEDMVVDECGCG
notes: also called VGR2
B2: BMP10 (ligand, UniProt O95393 317-424, looked up)
chain: NAKGNYCKRTPLYIDFKEIGWDSWIIAPPGYEAYECRGVCNYPLAEHLTPTKHAIIQALVHLKNSQKASKACCVPTKLEPISILYLDKGVVTYKFKYEGMAVSECGCR
B3: activin A (ligand, UniProt P08476 311-426, looked up)
chain: GLECDGKVNICCKKQFFVSFKDIGWNDWIIAPSGYHANYCEGECPSHIAGTSGSSLSFHSTVINHYRMRGHSPFANLKSCCVPTKLRPMSMLYYDDGQNIIKKDIQNMIVEECGCS
B4: GDF11 (ligand, UniProt O95390 299-407, looked up)
chain: NLGLDCDEHSSESRCCRYPLTVDFEAFGWDWIIAPKRYKANYCSGQCEYMFMQKYPHTHLVQQANPRGSAGPCCTPTKMSPINMLYFNDKQQIIYGKIPGMVVDRCGCS
notes: also called BMP11
B5: BMP9 (ligand, UniProt Q9UK05 320-429, looked up)
chain: SAGAGSHCQKTSLRVNFEDIGWDSWIIAPKEYEAYECKGGCFFPLADDVTPTKHAIVQTLVHLKFPTKVGKACCVPTKLSPISVLYKDDMGVPTLKYHYEGMSVAECGCR
notes: also called GDF2
B6: ActRIIB-Fc homodimer (Fc fusion, human, UniProt Q13705 19-137, looked up, not shown: a dimerising Fc or GST)
chain: SGRGEAETRECIYYNANWELERTNQSGLERCEGEQDKRLHCYASWRNSSGTIELVKKGCWLDDFNCYDRQECVATEENPQVYFCCCEGNFCNERFTHLPEAGGPEVTYEPPPTAPTLLT
notes: extracellular domain; also called unmodified ActRIIB-Fc homodimer; ActRIIB-Fc:ActRIIB-Fc homodimer

Assays:
[1] = target: B6; test: SPR (Biacore), anti-Fc capture, ligand in flow
Protocol: (§1) A Biacore™-based binding assay was used to compare ligand binding selectivity of the ActRIIB-Fc:ALK4-Fc heterodimeric complex described above with that of ActRIIB-Fc and ALK4-Fc homodimer complexes. The ActRIIB-Fc:ALK4-Fc heterodimer, ActRIIB-Fc homodimer, and ALK4-Fc homodimer were independently captured onto the system using an anti-Fc antibody. Ligands were injected and allowed to flow over the captured receptor protein. Results are summarized in the table below, in which ligand off-rates (kd) most indicative of effective ligand traps are denoted by bold font.

[2] = target: B6; test: SPR (Biacore), anti-Fc capture, ligand in flow; remark: listed apart in the source
Protocol: (§2) A Biacore™-based binding assay was used to compare ligand binding selectivity of the ActRIIB-Fc:ALK7-Fc heterodimeric complex described above with that of ActRIIB-Fc and ALK7-Fc homodimeric complexes. The ActRIIB-Fc:ALK7-Fc heterodimer, ActRIIB-Fc homodimer, and ALK7-Fc homodimer were independently captured onto the system using an anti-Fc antibody. Ligands were injected and allowed to flow over the captured receptor protein. Results are summarized in the table below, in which ligand off-rates (kd) most indicative of effective ligand traps are denoted by bold font.

[3] = target: B6; test: SPR (Biacore), 37 C, anti-Fc capture, ligand in flow
Protocol: (§3) A Biacore™-based binding assay was used to compare the ligand binding kinetics of an ActRIIB-Fc:ActRIIB(L79E)-Fc heterodimer with those of unmodified ActRIIB-Fc homodimer. Fusion proteins were captured onto the system using an anti-Fc antibody. Ligands were then injected and allowed to flow over the captured receptor protein at 37° C. Results are summarized in the table below, in which ligand off-rates (kd) most indicative of effective ligand traps are denoted in bold.

[4] = target: T1, BMP6 (UniProt P22004 382-513, limits assumed); test: SPR (Biacore), anti-Fc capture, ligand in flow
T1 sequence (looked up): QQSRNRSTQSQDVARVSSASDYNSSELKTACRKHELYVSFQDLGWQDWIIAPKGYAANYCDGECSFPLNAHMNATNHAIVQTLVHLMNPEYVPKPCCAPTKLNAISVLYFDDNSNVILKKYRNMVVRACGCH
Protocol: as §1

[5] = target: T2, activin AC (UniProt P08476 311-426; P55103 237-352); test: SPR (Biacore), anti-Fc capture, ligand in flow
T2 construct: Heterodimer of beta A and beta C
T2 sequence (looked up) 1: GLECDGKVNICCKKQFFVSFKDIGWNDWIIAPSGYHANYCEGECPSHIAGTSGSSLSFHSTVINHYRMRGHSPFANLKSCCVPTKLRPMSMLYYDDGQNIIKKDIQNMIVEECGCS
T2 sequence (looked up) 2: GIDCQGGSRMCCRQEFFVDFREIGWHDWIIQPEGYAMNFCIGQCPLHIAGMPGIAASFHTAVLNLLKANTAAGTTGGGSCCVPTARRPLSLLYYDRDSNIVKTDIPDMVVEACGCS
Protocol: as §2

[6] = target: T3, BMP5 (UniProt P22003 317-454, limits assumed); test: SPR (Biacore), anti-Fc capture, ligand in flow
T3 sequence (looked up): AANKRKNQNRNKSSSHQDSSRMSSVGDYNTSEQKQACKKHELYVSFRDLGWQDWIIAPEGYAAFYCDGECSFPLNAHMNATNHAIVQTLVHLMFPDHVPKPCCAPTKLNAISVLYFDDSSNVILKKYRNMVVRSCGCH
Protocol: as §2

[7] = target: T1, BMP6; test: SPR (Biacore), anti-Fc capture, ligand in flow; remark: listed apart in the source
Protocol: as §2

[8] = target: T1, BMP6; test: SPR (Biacore), 37 C, anti-Fc capture, ligand in flow
Protocol: as §3

[9] = target: B3; test: as above
Protocol: as §3

[10] = target: B5; test: as above
Protocol: as §3

[11] = target: B2; test: as above
Protocol: as §3

[12] = target: T4, activin B (UniProt P09529 293-407); test: as above
T4 sequence (looked up): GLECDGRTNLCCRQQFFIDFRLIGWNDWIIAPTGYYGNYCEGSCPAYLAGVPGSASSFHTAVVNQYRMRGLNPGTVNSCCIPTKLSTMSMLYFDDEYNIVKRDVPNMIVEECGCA
Protocol: as §3

[13] = target: B1; test: as above
Protocol: as §3

[14] = target: T5, GDF8 (UniProt O14793 267-375); test: as above
T5 construct: also called myostatin
T5 sequence (looked up): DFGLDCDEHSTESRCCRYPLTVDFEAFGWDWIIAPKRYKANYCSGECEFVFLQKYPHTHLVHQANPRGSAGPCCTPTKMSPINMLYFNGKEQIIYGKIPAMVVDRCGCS
Protocol: as §3

[15] = target: B4; test: as above
Protocol: as §3

Binder: B1
Kd [1]: 1.5 nM | koff [1]: 0.0022 s⁻¹ | kon [1]: 1.4e+06 M⁻¹ s⁻¹ | Kd [2]: 1.5 nM | koff [2]: 0.0022 s⁻¹ | kon [2]: 1.4e+06 M⁻¹ s⁻¹ | Kd [3]: 1.5 nM | koff [3]: 0.0022 s⁻¹ | kon [3]: 1.4e+06 M⁻¹ s⁻¹

Binder: B2
Kd [1]: 0.011 nM | koff [1]: 0.00026 s⁻¹ | kon [1]: 2.3e+07 M⁻¹ s⁻¹ | Kd [2]: 0.025 nM | koff [2]: 0.00015 s⁻¹ | kon [2]: 5.9e+06 M⁻¹ s⁻¹ | Kd [3]: 0.004 nM | koff [3]: 0.0002 s⁻¹ | kon [3]: 5.1e+07 M⁻¹ s⁻¹

Binder: B3
Kd [1]: 0.019 nM | koff [1]: 0.00023 s⁻¹ | kon [1]: 1.2e+07 M⁻¹ s⁻¹ | Kd [2]: 0.011 nM | koff [2]: 0.00014 s⁻¹ | kon [2]: 1.3e+07 M⁻¹ s⁻¹ | Kd [3]: 0.025 nM | koff [3]: 0.00019 s⁻¹ | kon [3]: 7.4e+06 M⁻¹ s⁻¹

Binder: B4
Kd [1]: 0.002 nM | koff [1]: 0.00011 s⁻¹ | kon [1]: 5e+07 M⁻¹ s⁻¹ | Kd [2]: 0.002 nM | koff [2]: 0.00015 s⁻¹ | kon [2]: 9.6e+07 M⁻¹ s⁻¹ | Kd [3]: 0.004 nM | koff [3]: 0.00017 s⁻¹ | kon [3]: 4.1e+07 M⁻¹ s⁻¹

Binder: B5
Kd [1]: 0.077 nM | koff [1]: 0.0011 s⁻¹ | kon [1]: 1.4e+07 M⁻¹ s⁻¹ | Kd [2]: 0.01 nM | koff [2]: 0.001 s⁻¹ | kon [2]: 1.2e+08 M⁻¹ s⁻¹ | Kd [3]: 0.25 nM | koff [3]: 0.0013 s⁻¹ | kon [3]: 5e+06 M⁻¹ s⁻¹

Binder: B6
Kd [4]: 0.19 nM | koff [4]: 0.0068 s⁻¹ | kon [4]: 3.2e+07 M⁻¹ s⁻¹ | Kd [5]: 0.16 nM | koff [5]: 0.0031 s⁻¹ | kon [5]: 2e+07 M⁻¹ s⁻¹ | Kd [6]: 2.9 nM | koff [6]: 0.075 s⁻¹ | kon [6]: 2.6e+07 M⁻¹ s⁻¹ | Kd [7]: 0.16 nM | koff [7]: 0.0039 s⁻¹ | kon [7]: 2.4e+07 M⁻¹ s⁻¹ | Kd [8]: 0.056 nM | koff [8]: 0.0074 s⁻¹ | kon [8]: 1.3e+08 M⁻¹ s⁻¹

Kd [9]: 0.17 nM | fold faster off-rate vs ActRIIB-Fc homodimer [9]: ~10 fold | koff [9]: 0.0015 s⁻¹ | kon [9]: 8.8e+06 M⁻¹ s⁻¹ | Kd [10]: > 2.8 nM | Kd [11]: 0.042 nM | fold faster off-rate vs ActRIIB-Fc homodimer [11]: ~10 fold | koff [11]: 0.002 s⁻¹ | kon [11]: 4.8e+07 M⁻¹ s⁻¹ | Kd [12]: 0.025 nM | koff [12]: 0.00021 s⁻¹ | kon [12]: 8.3e+06 M⁻¹ s⁻¹ | Kd [13]: 10 nM | koff [13]: 0.0059 s⁻¹ | kon [13]: 580000 M⁻¹ s⁻¹ | Kd [14]: 0.15 nM | koff [14]: 0.0005 s⁻¹ | kon [14]: 3.4e+06 M⁻¹ s⁻¹ | Kd [15]: 0.009 nM | koff [15]: 0.00036 s⁻¹ | kon [15]: 4e+07 M⁻¹ s⁻¹ | Kd [8]: 0.056 nM | koff [8]: 0.018 s⁻¹ | kon [8]: 3.3e+08 M⁻¹ s⁻¹
B7: ActRIIB-Fc:ActRIIB(L79E)-Fc heterodimer (Fc fusion)
chain 1: GRGEAETRECIYYNANWELERTNQSGLERCEGEQDKRLHCYASWRNSSGTIELVKKGCWLDDFNCYDRQECVATEENPQVYFCCCEGNFCNERFTHLPEAGGPEVTYEPPPTAPTGGGTHTCPPCPAPELLGGPSVFLFPPKPKDTLMISRTPEVTCVVVDVSHEDPEVKFNWYVDGVEVHNAKTKPREEQYNSTYRVVSVLTVLHQDWLNGKEYKCKVSNKALPAPIEKTISKAKGQPREPQVYTLPPSRKEMTKNQVSLTCLVKGFYPSDIAVEWESNGQPENNYKTTPPVLKSDGSFFLYSKLTVDKSRWQQGNVFSCSVMHEALHNHYTQKSLSLSPGK
chain 2: GRGEAETRECIYYNANWELERTNQSGLERCEGEQDKRLHCYASWRNSSGTIELVKKGCWEDDFNCYDRQECVATEENPQVYFCCCEGNFCNERFTHLPEAGGPEVTYEPPPTAPTGGGTHTCPPCPAPELLGGPSVFLFPPKPKDTLMISRTPEVTCVVVDVSHEDPEVKFNWYVDGVEVHNAKTKPREEQYNSTYRVVSVLTVLHQDWLNGKEYKCKVSNKALPAPIEKTISKAKGQPREPQVYTLPPSREEMTKNQVSLTCLVKGFYPSDIAVEWESNGQPENNYDTTPPVLDSDGSFFLYSDLTVDKSRWQQGNVFSCSVMHEALHNHYTQKSLSLSPG
notes: also called ActRIIB-Fc:ActRIIB(L79E)-Fc heteromer
